Patent US20100204147A1, “Methods For Delivering Thymosin Beta 4, Analogues, Isoforms and Other Derivatives” (REGENERX BIOPHARMACEUTICALS, INC., priority 2003, published 2010)

Key:
Aα221-391 sub-fragment = molecular target: T1, Aα221-391 sub-fragment (Homo sapiens, UniProt P02671); test: ELISA of incorporation into immobilized Aα221-391 sub-fragment; format: biochemical
T1 construct: (residues Aα221-391 and Aα392-610, respectively); made in house; host or cells: E. coli, pET20b expression vector
T1 sequence (P02671 240-410): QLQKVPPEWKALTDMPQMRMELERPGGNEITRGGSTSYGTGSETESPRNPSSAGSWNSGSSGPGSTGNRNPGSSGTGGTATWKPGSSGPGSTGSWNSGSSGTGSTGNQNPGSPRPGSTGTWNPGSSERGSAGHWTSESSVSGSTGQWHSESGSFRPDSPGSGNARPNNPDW
Experimental: The interaction between thymosin β4 and fibrin(ogen) and its fragments in the presence or absence of FXIIIa was studies by ELISA using plastic microliter plates. Wells of microliter plates were coated overnight at […] with fibrinogen and fibrin at 10 μg/mL or with the recombinant fragments of 20 μg/ml, all in 0.1 M NaHCO3 buffer, pH 8.3. Fibrin was made by addition to the wells of a mixture containing 10 μg/mL fibrinogen 1 NIH u/ml thrombin and 400 u/ml aprotinin, followed by overnight incubation at +4° C. The wells were then blocked by incubation with Super Blocker (Pierce) at 37° C. for 1 h. Following washing with TBS containing 0.05% Tween-20 (TBS-Tween), the indicated concentrations of thymosin β4, FXIII, FXIIIa(Thr) and FXIIIa(Ca) were added to the wells and incubated for 2-2.5 h at 37° C. Bound (incorporated) thymosin β4 was detected by the reaction with rabbit anti-thymosin β4 serum and peroxidase-conjugated anti-rabbit IgG. A TMB Microwell Peroxidase Substrase was added to the wells, and the incorporated thymosin β4 was measured spectrophotometrically at 450 nm.

fibrinogen = molecular target: T2, fibrinogen (Homo sapiens, UniProt P02671); test: Factor XIIIa-mediated incorporation of FITC-labeled thymosin β4 into fibrinogen (spectrophotometric); format: biochemical
T2 construct: purchased Enzyme Research Laboratories (South Bend, Ind.)
T2 sequence (P02671 20-644 isoform P02671-2 limits assumed): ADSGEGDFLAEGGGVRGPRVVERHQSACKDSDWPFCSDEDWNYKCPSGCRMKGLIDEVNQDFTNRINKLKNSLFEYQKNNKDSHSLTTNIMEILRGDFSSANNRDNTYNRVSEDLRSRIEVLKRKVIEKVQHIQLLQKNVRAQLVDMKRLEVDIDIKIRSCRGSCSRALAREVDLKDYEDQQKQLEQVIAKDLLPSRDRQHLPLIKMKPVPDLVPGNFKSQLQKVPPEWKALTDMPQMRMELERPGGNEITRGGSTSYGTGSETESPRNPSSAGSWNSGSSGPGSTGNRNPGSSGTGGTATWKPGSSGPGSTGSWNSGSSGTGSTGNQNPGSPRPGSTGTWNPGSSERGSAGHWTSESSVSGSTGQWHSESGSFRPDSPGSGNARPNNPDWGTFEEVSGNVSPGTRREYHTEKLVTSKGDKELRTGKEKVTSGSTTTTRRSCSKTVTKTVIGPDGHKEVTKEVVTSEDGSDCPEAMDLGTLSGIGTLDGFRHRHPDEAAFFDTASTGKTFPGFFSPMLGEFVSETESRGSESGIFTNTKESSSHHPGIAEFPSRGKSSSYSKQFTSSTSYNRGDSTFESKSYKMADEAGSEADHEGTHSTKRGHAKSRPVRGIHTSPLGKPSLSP
T2 sequence (P02675 31-491 partner): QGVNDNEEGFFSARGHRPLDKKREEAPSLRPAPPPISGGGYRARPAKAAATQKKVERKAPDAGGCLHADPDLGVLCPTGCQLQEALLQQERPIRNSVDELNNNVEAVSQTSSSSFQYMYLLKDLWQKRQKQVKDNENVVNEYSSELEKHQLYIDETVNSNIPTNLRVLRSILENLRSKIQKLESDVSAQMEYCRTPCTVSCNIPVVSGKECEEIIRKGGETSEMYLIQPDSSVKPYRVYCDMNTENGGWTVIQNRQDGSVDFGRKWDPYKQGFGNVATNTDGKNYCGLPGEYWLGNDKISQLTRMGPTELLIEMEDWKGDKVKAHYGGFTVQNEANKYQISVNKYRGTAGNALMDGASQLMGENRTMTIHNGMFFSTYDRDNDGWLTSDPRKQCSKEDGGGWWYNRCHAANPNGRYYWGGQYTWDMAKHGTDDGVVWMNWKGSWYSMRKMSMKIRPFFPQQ
T2 sequence (P02679 27-437 isoform P02679-2 partner limits assumed): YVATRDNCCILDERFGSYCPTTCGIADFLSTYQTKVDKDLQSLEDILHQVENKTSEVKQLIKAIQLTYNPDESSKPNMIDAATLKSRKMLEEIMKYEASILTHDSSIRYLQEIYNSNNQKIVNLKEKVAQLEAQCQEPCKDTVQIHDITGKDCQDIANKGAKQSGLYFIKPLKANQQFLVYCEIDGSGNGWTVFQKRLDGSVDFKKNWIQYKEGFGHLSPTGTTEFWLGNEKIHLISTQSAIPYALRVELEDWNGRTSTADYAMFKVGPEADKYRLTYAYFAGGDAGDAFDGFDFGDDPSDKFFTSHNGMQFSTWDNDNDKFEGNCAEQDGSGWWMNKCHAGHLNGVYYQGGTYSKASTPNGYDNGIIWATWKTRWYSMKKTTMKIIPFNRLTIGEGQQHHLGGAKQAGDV
Experimental: Reactions of incorporation of FITC-labeled and unlabeled thymosin β4 into fibrinogen and fibrin were performed in Eppendorf tubes containing a mixture of fibrinogen at 3 mg/mL (9 μM) and thymosin β4 or FITC-labeled thymosin β4 at […] (30 μM) in 100 μL TBS with 2.5 mM CaCl2. The reactions were initiated by addition of FXIIIa(Ca) or FXIIIa(Thr) to final concentration of 30 μg/mL. The final concentration of thrombin in the FXIIIa(Thr)-containing mixtures was made at 2.5 NIH u/mL, sufficient to rapidly form fibrin clot which was observed visually. The reactions with FITC-labeled thymosin β4 lasted for 4 hours at 37° C. in the dark and were stopped by heat inactiviation of the enzymes in boiling water for 5 min during fibrinogen and fibrin denatured and precipitated. The pellets were centrifuged and washed 3 times in TBS and then solubilized. The amounts of fibrin(ogen) and FITC-labeled thymosin β4 in the solubilized pellet were determined spectrophotomertrically using absorption molar coefficients E280,1%=15.0 and ε495=72,000 M^−1cm^−1, respectively. To prepare samples with unlabeled thymosin β4 for analysis by SDS-PAGE and Western blot the reaction mixtures at the indicated time were heat-inactivated as above and solubilized by addition of sample buffer (Invitrogen) containing SDS and reducing agent.

non-covalent interaction with Aα221-391 sub-fragment (ELISA) (Aα221-391 sub-fragment; non-activated factor XIII or without it): no significant non-covalent interaction
incorporation into immobilized Aα221-391 (ELISA) (Aα221-391 sub-fragment; presence of factor XIIIa): very low
degree of incorporation into fibrinogen (fibrinogen; fibrinogen 9 μM, thymosin β4 30 μM, factor XIIIa, 4 hours, 37° C.): 0.2 moles per mole
molar incorporation ratio of thymosin β4 to fibrinogen (fibrinogen; physiological concentrations of fibrin(ogen) and factor XIII): 0.2
Substance: thymosin β4
